Values of other authors in PMC6943629, “Binding of Gold(III) Porphyrin by the Pro-metastatic Regulatory Protein Human Galectin-3” (Molecules, 2019).

Legend:
[1] = target: asialofetuin (Bos taurus) (UniProt P12763)
MUC18 (Homo sapiens) = MUC18 (Homo sapiens) (UniProt P43121); test: bio-layer interferometry
MUC18 (Homo sapiens), sequence (P43121 24-646): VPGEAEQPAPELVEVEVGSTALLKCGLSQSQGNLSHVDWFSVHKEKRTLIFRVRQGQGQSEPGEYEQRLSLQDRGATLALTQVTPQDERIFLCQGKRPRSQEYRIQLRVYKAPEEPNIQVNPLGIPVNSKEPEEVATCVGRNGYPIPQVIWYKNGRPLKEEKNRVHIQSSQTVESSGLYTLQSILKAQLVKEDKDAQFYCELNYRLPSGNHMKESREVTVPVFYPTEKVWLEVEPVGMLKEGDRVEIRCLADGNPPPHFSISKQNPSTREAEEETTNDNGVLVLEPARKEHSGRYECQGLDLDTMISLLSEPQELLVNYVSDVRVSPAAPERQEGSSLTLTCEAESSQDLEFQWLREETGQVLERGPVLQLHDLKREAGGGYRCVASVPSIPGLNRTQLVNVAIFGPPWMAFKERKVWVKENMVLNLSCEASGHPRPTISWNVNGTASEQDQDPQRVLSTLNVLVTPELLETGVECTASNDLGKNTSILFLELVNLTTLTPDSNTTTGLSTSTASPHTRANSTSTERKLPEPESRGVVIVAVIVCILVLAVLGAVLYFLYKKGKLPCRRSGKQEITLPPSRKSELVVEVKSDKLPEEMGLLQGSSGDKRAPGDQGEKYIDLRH

galectin-3, sequence (P17931 2-250): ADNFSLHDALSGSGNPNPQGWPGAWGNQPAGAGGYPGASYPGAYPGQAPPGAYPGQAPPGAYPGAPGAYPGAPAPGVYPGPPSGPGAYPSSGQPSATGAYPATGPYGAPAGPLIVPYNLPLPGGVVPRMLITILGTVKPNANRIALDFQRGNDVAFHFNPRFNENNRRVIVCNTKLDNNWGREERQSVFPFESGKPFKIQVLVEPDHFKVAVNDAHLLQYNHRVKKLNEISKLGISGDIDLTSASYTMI
asialofetuin (Bos taurus), sequence (P12763 19-359): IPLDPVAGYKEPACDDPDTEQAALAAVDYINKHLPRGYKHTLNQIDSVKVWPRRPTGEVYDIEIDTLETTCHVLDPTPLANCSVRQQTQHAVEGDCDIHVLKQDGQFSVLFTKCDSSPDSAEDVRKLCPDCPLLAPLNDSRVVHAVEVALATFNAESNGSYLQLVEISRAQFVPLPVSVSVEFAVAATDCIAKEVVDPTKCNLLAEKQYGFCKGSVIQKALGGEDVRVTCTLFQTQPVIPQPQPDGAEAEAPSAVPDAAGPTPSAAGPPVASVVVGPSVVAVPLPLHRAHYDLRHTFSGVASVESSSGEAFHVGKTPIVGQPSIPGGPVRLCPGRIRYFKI

## galectin-3 (from UniProt P17931)
[1]
  Kd: 720 nM
MUC18 (Homo sapiens)
  Kd: 430 nM
